B1: Palmitoyltransferase ZDHHC5 (Homo sapiens), Q9C0B5 (parent)
chain: MPAESGKRFKPSKYVPVSAAAIFLVGATTLFFAFTCPGLSLYVSPAVPIYNAIMFLFVLANFSMATFMDPGIFPRAEEDEDKEDDFRAPLYKTVEIKGIQVRMKWCATCRFYRPPRCSHCSVCDNCVEEFDHHCPWVNNCIGRRNYRYFFLFLLSLTAHIMGVFGFGLLYVLYHIEELSGVRTAVTMAVMCVAGLFFIPVAGLTGFHVVLVARGRTTNEQVTGKFRGGVNPFTNGCCNNVSRVLCSSPAPRYLGRPKKEKTIVIRPPFLRPEVSDGQITVKIMDNGIQGELRRTKSKGSLEITESQSADAEPPPPPKPDLSRYTGLRTHLGLATNEDSSLLAKDSPPTPTMYKYRPGYSSSSTSAAMPHSSSAKLSRGDSLKEPTSIAESSRHPSYRSEPSLEPESFRSPTFGKSFHFDPLSSGSRSSSLKSAQGTGFELGQLQSIRSEGTTSTSYKSLANQTRNGSLSYDSLLTPSDSPDFESVQAGPEPDPPLGYTSPFLSARLAQQREAERHPRLVPTGPTHREPSPVRYDNLSRHIVASLQEREKLLRQSPPLPGREEEPGLGDSGIQSTPGSGHAPRTSSSSDDSKRSPLGKTPLGRPAVPRFGKPDGLRGRGVGSPEPGPTAPYLGRSMSYSSQKAQPGVSETEEVALQPLLTPKDEVQLKTTYSKSNGQPKSLGSASPGPGQPPLSSPTRGGVKKVSGVGGTTYEISV

Variants of: B1
Conditions: with spike_sars2 S

Variant | effect of a mutation on the interaction
C134S | with no effect
